The results in this text go back to patent US20230212306A1 (Daiichi Sankyo, published 2023).

Assay [1] deals with T1, human TLR7-Flag-His×6 (human TLR7 variant 2), expressed in Ba/F3 cells together with human Unc93B1-HA×2 (human, UniProt Q9NYK1 27-1049).
T1 construct: Cells were permeabilised with 0.1% saponin before staining; also called hTLR7-Flag-His×6; not shown: Flag-His×6 tag added to the C-terminus
T1 sequence: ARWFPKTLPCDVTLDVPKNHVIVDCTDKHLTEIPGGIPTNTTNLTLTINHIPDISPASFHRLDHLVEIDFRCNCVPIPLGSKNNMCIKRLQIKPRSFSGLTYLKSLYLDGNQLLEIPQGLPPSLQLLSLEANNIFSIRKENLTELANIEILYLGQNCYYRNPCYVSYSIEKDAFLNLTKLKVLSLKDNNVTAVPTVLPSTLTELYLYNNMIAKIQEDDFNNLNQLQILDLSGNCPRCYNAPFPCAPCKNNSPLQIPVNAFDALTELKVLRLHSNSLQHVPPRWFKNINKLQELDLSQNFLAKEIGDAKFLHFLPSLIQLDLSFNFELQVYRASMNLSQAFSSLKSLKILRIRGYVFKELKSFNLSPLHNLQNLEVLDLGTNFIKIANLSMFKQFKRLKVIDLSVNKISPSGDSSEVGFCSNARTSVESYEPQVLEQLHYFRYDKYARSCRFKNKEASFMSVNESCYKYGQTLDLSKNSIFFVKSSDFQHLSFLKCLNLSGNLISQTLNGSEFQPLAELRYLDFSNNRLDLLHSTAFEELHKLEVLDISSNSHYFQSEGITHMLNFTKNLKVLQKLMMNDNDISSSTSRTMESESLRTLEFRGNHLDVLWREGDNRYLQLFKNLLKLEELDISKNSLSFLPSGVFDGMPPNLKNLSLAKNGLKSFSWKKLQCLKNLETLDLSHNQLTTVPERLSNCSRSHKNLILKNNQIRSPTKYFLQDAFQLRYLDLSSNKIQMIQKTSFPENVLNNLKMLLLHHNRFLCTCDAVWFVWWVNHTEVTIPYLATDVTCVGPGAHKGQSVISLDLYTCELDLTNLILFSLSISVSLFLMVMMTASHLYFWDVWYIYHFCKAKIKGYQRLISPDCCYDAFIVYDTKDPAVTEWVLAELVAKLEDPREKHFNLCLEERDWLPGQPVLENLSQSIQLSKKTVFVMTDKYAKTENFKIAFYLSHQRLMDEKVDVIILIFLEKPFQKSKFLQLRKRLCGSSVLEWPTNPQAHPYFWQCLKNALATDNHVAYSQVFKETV
Briefly: flow cytometry (MFI) on saponin-permeabilised Ba/F3 cells expressing human TLR7-Flag-His×6/human Unc93B1-HA×2. The source says:
(§1) The Ba/F3 cell line expressing human TLR7-Flag-His×6/human Unc93B1-HA×2 established above in 1)-1-1, the Ba/F3 cell line expressing mouse TLR7-Flag-His×6 established above in 2)-1-1, the Ba/F3 cell line expressing rat TLR7-Flag-His×6×2 established above in 2)-1-2, and the Ba/F3 cell line expressing monkey TLR7-Flag-His×6 established above in 2)-1-3 were subjected to membrane permeation with 0.1% Saponin and stained using AT01 antibody, NB7 antibody, and FAN2 antibody, and a secondary antibody, Goat anti-mouse IgG (H+L)-PE (eBioscience). The binding selectivity of each antibody was evaluated by comparing the average fluorescence intensity (MFI) based on flow cytometry analysis.

In assay [2] the target is T2, mouse TLR7-Flag-His×6, expressed in Ba/F3 cells (mouse, UniProt P58681 27-1050).
T2 construct: cells permeabilised with 0.1% saponin; not shown: Flag-His×6 tag added to the C-terminus
T2 sequence: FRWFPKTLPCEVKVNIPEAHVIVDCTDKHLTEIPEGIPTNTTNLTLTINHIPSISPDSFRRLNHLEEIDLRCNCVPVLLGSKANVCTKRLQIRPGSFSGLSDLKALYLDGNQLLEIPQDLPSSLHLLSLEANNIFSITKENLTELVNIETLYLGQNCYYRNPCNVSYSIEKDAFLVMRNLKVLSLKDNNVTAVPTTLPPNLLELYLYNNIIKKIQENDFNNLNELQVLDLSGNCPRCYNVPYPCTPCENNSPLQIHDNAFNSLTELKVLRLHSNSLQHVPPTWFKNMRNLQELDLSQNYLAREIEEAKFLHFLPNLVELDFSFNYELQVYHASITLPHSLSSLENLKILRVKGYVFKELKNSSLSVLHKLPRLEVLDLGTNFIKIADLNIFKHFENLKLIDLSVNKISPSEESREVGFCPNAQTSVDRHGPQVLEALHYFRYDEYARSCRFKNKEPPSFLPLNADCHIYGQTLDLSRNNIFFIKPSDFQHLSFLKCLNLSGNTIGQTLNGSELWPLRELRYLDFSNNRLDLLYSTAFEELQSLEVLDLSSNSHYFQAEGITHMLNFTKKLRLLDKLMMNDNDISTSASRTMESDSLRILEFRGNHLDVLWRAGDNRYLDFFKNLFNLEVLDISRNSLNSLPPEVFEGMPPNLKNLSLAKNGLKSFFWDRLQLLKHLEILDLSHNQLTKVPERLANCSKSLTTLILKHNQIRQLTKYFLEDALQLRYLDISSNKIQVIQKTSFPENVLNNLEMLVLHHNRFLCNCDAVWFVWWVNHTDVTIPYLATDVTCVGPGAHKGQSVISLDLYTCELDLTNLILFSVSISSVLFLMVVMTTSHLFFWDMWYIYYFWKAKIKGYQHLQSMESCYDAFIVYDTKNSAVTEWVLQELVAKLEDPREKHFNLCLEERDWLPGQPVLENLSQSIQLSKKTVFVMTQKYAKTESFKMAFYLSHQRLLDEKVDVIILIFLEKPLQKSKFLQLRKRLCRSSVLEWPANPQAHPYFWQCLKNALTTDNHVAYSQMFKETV
Briefly: flow cytometry (MFI) on saponin-permeabilised Ba/F3 cells expressing mouse TLR7-Flag-His×6.
Source text: as §1

B1: FAN2 antibody (antibody, IgG1, V domains shown)
VH: QVQLKESGPGLVAPSQSLSITCTVSGFSLTGYGVNWVRQPPGKGLEWLGMIWGDGSTDYNSALKSRLSIRKDNSKSQVFLKMNSLQTDDTARYYCARDKGYDGYYYAMDYWGQGTSVTVSS
VL: DIQMTQSPASLSASVGETVTITCRASENIYSYLAWYQQKQGKSPQLLVYDAKTLAEGVPSRFSGSGSGTQFSLKINSLQPEDFGSYYCQHHYGIPYTFGGGTKLEIK
notes: also called mouse anti-human TLR7 antibody (FAN2)
For the molecule B1, the binding result in assay [1] is on record as “binds”; in assay [2], “no binding”.

B2: AT01 antibody (antibody, IgG1, V domains shown)
VH: QVQLQQPGAELVKPGASVNLSCKASGYTFTNNWLHWVKQRPGRGLEWIGDIYPSNGRTNYNEQFKTKATLTVDKSSSTAYMQLSSLTSEDSAVYFCARERGYFDYWGQGTALTVSS
VL: DIQMTQSPSSLSTSLGGKVTITCKASQDINKYIAWYQHKPGKGPRLLIHYTSTLQPGIPSRFSGSGSGRDYSFSISNLEPEDIATYYCLQYDYLLTFGAGTKLELK
notes: also called mouse anti-human TLR7 antibody (AT01)
Regarding B2, the binding result is “binds” in assay [1] and “no binding” in assay [2].

B3: NB7 antibody (antibody, IgG1, V domains shown)
VH: DVQLQESGPGLVKPSQSLSLTCTVTGYSITSDYAWNWIRQFPGNKLEWMGHISYRGNTNYNPSLKSRISITRDTSKNQFFLQLNSVTTEDTATYYCASWNYYGYVDYAMDYWGQGTSVTVSS
VL: DIQMTQTPSSLSASLGDRVTISCRASQDISNYLNWYQQKPDGTVKLLIYYTSRLHSGVPSRFSGSGSGTDYSLTINNLEQEDIATYFCQQGDTFPTFGGGTKLEIK
notes: also called mouse anti-human TLR7 antibody (NB7)
As to B3, the results for the binding result in assay [1] and in assay [2] were “binds” and “no binding”, respectively.
